# Literature values in US20040162315A1, “Use of compounds for treating conditions resulting from injury to the corneal nerve after LASIK and other ocular surgeries or trauma” (priority 2002, published 2004).
# B1: BDNF: neurotrophin family peptide, TrkB receptor-selective ligand (protein, UniProt P23560 19-247, looked up)
# Neurotrophic factor BDNF …: APMKEANIRGQGGLAYPGVRTHGTLESVNGPKAGSRGLTSLADTFEHVIEELLDEDQKVRPNEENNKDADLYTSRVMLSSQVPLEPPLLFLLEEYKNYLDAANMSMRVRRHSDPARRGELSVCDSISEWVTAADKKTAVDMSGGTVTVLEKVPVSKGQLKQYFYETKCNPMGYTKEGCRGIDKRHWNSQCRTTQSYVRALTMDSKKRIGWRFIRIDTSCVCTLTIKRGR
# Tested on: axotomized ocular nerves
# Conditions: single intravitreal injection of 5 μg, administered during the first five days after injury
molecule,measurement,value
B1,death of the axotomized ocular nerves,prevented the death of the axotomized ocular nerves
